# Test results published in patent publication EP0907730B1 (Zenyth Operations Pty Ltd, dated 2009).
# B1: IL-4 (obtained commercially, R & D Systems) (ligand, UniProt P07750 23-140, looked up)
# chain: HGCDKNHLREIIGILNEVTGEGTPCTEMDVPNVLTATKNTTESELVCRASKVLRIFYLKHGKTPCLKKNSSVLMELQRLFRAFRCLDSSISCTMNESKSTSLKDFLESLKSIMQMDYS
# modifications: radiolabelled with di-iodo-Bolton-Hunter reagent (125I) where used as tracer
# notes: also called interleukin-4
# B2: IL-13 (obtained commercially, R & D Systems) (ligand, UniProt P20109 19-131, looked up)
# chain: APGPVPRSVSLPLTLKELIEELSNITQDQTPLCNGSMVWSVDLAAGGFCVALDSLTNISNCNAIYRTQRILHGLCNRKAPTTVSSLPDTKIEVAHFITKLLSYTKQLFRHGPF
# modifications: radioiodinated (125I, iodine monochloride method) where used as tracer
# notes: also called interleukin-13
# How the values were obtained:
# [1] = biological target: T1, IL-4 receptor expressed by parental CTLL cells (UniProt P16382 26-810, limits assumed); experiment: 125I-IL-4 saturation binding (Scatchard) on parental CTLL cells
# T1 construct: whole, on cells; Endogenous receptor of untransfected CTLL cells; also called IL-4 receptors expressed by CTLL cells; IL-4Rα
# T1 sequence (looked up): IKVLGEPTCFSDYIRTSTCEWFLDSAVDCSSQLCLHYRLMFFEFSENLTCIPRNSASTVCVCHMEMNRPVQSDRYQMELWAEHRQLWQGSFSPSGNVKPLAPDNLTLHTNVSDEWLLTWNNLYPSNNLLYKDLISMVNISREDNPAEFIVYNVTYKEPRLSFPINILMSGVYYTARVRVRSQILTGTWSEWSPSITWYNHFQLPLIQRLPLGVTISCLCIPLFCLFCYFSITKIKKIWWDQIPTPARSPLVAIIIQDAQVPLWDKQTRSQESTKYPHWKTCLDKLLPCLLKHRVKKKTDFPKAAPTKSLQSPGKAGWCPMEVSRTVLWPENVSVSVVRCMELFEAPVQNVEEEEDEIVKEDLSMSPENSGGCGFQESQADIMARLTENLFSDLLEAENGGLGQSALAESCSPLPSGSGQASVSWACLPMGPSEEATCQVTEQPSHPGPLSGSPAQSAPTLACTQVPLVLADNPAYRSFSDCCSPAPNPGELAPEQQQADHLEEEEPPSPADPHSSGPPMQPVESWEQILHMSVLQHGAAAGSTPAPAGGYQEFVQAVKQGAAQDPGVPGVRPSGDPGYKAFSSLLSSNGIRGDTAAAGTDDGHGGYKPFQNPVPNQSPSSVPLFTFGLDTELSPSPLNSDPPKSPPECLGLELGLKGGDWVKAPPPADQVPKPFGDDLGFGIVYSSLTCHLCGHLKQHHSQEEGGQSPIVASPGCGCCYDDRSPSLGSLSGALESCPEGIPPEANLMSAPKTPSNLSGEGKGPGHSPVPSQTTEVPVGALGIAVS
# [2] = biological target: T1, IL-4 receptor expressed by parental …; experiment: 125I-IL-13 saturation binding on parental CTLL cells
Binder,Kd [1],binding result [2]
B1,~660 pM,
B2,,no binding
